Test results as given in the RNAGym collection of RNA variant scans (doi:10.7554/elife.90254).

B1: OR4K15 (parent)
chain: GUUAACGGUCAUAGGCCAUGGAAACUAGGAGCACCAUUUCGCUGCCAGUGAAGAAAUGAACAAAGAAAAUCUGGGCCAGGCAGGCAUCAAAAGAAAUAGUCUUGCGCUCAACCAGAAAGUCUGUAAUCAUUUUAAGGGUA

Variants of: B1
Test: self-cleavage, relative activity (ratio to wild type); higher = more cleavage; in vitro, sequencing; the parent is a self-cleaving ribozyme

Variant	self-cleavage
U124C A134G	1.11
A114U A129G	0.06
U120G U122C	1.08
A118G G138A	1.14
C112A A129G	0.01
C113A U130C	0
A111G U122G	0.01
A111G U122A	0.01
A118C U122A	1.12
G119A A129U	0.67
A126C	0.52
A126G	0.84
U120C U130C	0.3
A118G A129G	0.29
A118G A129U	0.61
A116C U133C	0.28
A126C U127C	0.21
A111G G137A	0.02
A110C U122A	0.24
A117U U139C	1.57
U122A U139C	0.94
A125G U130C	0.53
C112G	0.02
C112A	0.01

Variant	self-cleavage
C112U	0.02
A125U C128U	1.62
A117C U120A	1.28
A110G A134G	0.12
U122C U139C	0.78
A114U U120C	0.03
A114U U120A	0.05
A118G U130C	0.73
A116U U122A	0.25
A110G A140U	0.18
C121A U122C	1.62
A118U A129G	0.85
A111G U132C	0.03
A111G U132A	0.02
U124A A126G	0.76
A114G A134U	0.23
A118G C121U	1.94
A118G C121A	2.97
A114U U131C	0.02
U120C U139G	1.36
U120C U139A	0.85
G123U G136A	2.35
C113U A129G	0.01
A117G U132C	1.85

Variant	self-cleavage
A117G U132A	1.62
A117G U139A	1.85
A117G U139C	1.34
A116G U127C	0.31
A116G U127A	0.72
A117G U127C	0.77
A117G A118C	0.24
U122G A129G	1.33
A126G A129U	0.83
A116U U127G	0.11
U120C U122C	0.32
C121A U130C	1.87
A118G U127C	0.24
A118G U127A	1.26
U124A U132G	0.61
A114U A116U	0.03
G119A U139C	2.96
U120A U133C	1.41
A110G A117G	0.16
A110G U132C	0.07
A114C U122C	0.01
G119A U132C	2.46
A110C A134G	0.41
A118G A126U	1.22

Variant	self-cleavage
A118G A126C	0.84
C113U U130C	0.04
A125U A135G	0.55
A111G A134G	0.01
A111G A134U	0.02
U122A A140G	1.17
A111G U120A	0
A114U U133C	0.14
U124A U130C	0.1
A117G A140U	1.12
A117G A140G	1.68
A114C A126G	0.02
A114U A135G	0.05
U122A A134G	0.73
G115U U131C	0.06
A126G U131C	1.14
U122A A135U	1
A110U A117C	0.29
A118G G123A	0.58
A111G A125G	0.01
A125U U133C	2.54
A118G U133A	1.28
A110G A111U	0.04
A114U U139A	0.07

Variant	self-cleavage
A118G U139C	1.43
A118G U139A	0.92
U124A	0.69
U124G	0.98
U124C	0.62
A118G U124C	1.37
C112G U120A	0.01
U122C G136U	1.86
A125U U132C	1.97
A111G A129G	0.01
U124A A140G	0.65
A116G G123A	0.19
U120A U131C	1.22
G123A A129C	0.92
G123C A135G	0.78
A111U A118G	0.05
A114G U120C	0.18
A114G U122A	0.39
A114G U122C	0.16
C121U U131C	2.02
A110G U122C	0.09
A110G U122G	0.26
A110G U122A	0.11
A126G A140U	1.58

Variant	self-cleavage
A126G A140G	1.28
A110G U139A	0.05
A117C U139C	0.68
U124C A140U	1.14
A110G U131C	0.08
G115U A126U	0.25
U120C A129U	0.78
A111U U122C	0.08
A117G A126C	1.79
A118G A135G	1.15
U120C A134G	1.3
U120C C128U	0.84
U122C U130C	0.64
A125G G138A	0.47
A125G G138C	0.83
A110G A125G	0.07
A118U U130G	0.71
U120C U127A	0.21
A111U U120A	0.08
A126C U132C	0.5
U122C A135C	0.54
A118C	0.97
A118U	0.61
A118G	0.89

Variant	self-cleavage
G115A C121A	0.33
U120C U131A	0.52
A110G A135U	0.12
A114U A125U	0.08
A110U A111G	0.01
A117C A135G	0.2
G115U A117G	0.39
A116C A129G	0.05
A114G G138A	0.76
A125G U133C	1.09
A126G U130G	1.19
A126G U130C	0.61
A114U A118G	0.05
A117C U122C	0.4
A116U U132A	0.05
C113U A117G	0.08
U122C G137C	1.67
A116G A118C	0.15
U122A C128A	1.32
U122G G137A	2.2
A110G C121G	0.2
A118U U124C	0.45
A116U G136A	0.07
